T1: BoNT/D (Clostridium botulinum, UniProt P19321 2-1276)
T1 sequence: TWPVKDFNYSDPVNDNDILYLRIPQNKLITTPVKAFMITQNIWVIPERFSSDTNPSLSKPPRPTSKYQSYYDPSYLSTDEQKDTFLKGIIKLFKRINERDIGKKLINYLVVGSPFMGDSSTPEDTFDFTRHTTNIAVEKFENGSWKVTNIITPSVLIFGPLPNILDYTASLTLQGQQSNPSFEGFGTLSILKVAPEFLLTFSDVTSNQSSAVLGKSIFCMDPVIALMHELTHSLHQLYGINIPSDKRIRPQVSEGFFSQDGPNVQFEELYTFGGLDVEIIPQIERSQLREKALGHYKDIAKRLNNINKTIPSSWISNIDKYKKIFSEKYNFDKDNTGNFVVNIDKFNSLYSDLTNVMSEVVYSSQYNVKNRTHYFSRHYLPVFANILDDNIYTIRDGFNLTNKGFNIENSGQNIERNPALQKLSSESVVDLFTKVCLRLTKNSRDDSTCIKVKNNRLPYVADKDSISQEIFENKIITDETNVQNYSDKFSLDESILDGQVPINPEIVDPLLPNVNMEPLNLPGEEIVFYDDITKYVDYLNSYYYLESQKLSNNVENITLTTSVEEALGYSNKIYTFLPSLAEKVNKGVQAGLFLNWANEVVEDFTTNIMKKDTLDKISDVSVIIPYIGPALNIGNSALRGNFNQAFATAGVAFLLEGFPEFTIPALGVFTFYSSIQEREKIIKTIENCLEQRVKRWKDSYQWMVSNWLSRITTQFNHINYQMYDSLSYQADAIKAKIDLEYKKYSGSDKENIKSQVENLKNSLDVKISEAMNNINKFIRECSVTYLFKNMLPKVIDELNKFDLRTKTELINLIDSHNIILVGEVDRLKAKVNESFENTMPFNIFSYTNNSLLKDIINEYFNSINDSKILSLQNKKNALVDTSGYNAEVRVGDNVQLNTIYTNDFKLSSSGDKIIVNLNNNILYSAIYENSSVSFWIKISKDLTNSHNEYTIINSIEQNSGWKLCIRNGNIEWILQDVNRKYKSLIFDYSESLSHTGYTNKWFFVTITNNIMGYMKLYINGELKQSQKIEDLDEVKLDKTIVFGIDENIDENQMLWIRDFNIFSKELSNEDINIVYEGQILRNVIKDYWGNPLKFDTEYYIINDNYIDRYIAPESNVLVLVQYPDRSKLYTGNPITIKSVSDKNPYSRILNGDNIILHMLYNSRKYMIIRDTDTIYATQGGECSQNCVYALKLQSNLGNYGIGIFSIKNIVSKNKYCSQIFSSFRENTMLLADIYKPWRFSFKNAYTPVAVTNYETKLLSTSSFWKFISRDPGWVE

T2: BoNT/C1 holotoxin (Clostridium botulinum, UniProt P18640 2-1291)
T2 sequence: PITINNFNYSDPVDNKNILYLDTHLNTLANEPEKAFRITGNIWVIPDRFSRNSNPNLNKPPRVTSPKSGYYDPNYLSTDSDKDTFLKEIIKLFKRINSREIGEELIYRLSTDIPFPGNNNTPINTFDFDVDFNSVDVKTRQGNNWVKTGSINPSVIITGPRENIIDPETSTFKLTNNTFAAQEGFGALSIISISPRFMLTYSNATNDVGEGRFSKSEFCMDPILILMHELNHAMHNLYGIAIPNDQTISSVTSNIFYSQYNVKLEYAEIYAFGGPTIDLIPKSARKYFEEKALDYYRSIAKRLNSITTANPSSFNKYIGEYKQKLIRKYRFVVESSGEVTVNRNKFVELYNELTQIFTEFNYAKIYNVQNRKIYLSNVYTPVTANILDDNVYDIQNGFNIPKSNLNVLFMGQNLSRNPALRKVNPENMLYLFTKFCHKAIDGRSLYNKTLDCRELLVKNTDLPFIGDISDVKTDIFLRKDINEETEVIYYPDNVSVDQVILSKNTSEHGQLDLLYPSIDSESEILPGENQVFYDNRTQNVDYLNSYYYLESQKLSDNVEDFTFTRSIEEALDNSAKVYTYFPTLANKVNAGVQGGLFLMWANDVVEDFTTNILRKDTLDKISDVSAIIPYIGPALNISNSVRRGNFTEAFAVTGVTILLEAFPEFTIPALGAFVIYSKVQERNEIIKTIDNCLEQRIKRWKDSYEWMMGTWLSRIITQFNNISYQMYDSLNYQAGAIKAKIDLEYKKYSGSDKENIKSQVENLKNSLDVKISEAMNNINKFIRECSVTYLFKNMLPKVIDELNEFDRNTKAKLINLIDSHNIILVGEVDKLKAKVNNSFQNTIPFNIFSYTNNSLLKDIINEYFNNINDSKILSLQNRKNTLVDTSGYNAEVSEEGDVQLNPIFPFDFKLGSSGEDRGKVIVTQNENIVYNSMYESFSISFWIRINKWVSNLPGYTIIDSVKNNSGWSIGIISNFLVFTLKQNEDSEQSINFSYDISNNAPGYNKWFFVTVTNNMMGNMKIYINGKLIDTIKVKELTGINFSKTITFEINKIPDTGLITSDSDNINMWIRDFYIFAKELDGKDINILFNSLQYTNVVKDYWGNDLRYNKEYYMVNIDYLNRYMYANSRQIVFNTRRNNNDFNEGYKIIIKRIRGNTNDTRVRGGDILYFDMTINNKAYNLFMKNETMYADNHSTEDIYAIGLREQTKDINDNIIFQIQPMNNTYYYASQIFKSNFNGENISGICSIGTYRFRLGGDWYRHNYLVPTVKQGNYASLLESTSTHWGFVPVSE


Tests used:
BoNT/D = target: T1, BoNT/D; assay: yeast scFv FACS
BoNT/C1 holotoxin = target: T2, BoNT/C1 holotoxin; assay: yeast scFv FACS

Binder	binding result (BoNT/D)	binding result (BoNT/C1 holotoxin)
8DC13 scFv (scFv, V domains shown, human) VH: QVQLVQSGAEVKKPGASVKVSCKASGYTFTGYYIHWVRQAPGQGLEWMGRINPNSGGANYAHKFQGRVTMTRDTSSNTAYMEVSRLKSDDTAVYYCARRRAVANLDYHYYGMDVWGQGTTVTVSS VL: DIVMTQSPSTLSASVGARVTITCRASQNINTYLNWYHQKPGKAPKLLIYAASSLQSGVPSRFSGSGSGTDFTLTISSLQPEDFATYYCQQSYSTPHTFGGGTKLEIK	binds	no binding (tested: ~1 µM)
8DC14 scFv (scFv, V domains shown, human) VH: QVQLVQSGGGVVQPGRSLRLSCVASGFTFSSYTMHWVRQAPGEGLEWVAGISNDGRNQYYSDSVKGRATISRDNSKDTLYLQMHSLRAEDTAVYYCAKANYHFILATTFHSWGQGTLVTVSS VL: DIVMTQSPSSVSASVGDRVTITCRASQGISSWLAWYQQKPGKAPKLLIYAASSLQSGVPSRFSGSGSGTDFTLTISRLQPEDVATYYCQRYNSLPFTFGGGTKLEIK	binds	no binding (tested: ~1 µM)
8DC11 scFv (scFv, V domains shown, human) VH: QVQLVESGPGLVKPSQTLSLSCTVSGGSVNHYYWNWIRQPPGKGLEWIGYIFYNGRTNYNPSLKSRVTMSVDTSKNQISLKLRSVTAADTAVYYCAREGARGYCSSTSCHDAFDIWGRGTLVTVSS VL: EIVLTQSPSFLSASVGDRVTITCRASQGIRNDLAWFQQKPGKAPKLLIYATSTLQSGVPSRFSGSGSGTDFTLTISSLQPEDFADYYCQQAASFPLTFGGGTKVDIK	binds	no binding (tested: ~1 µM)
8DC12 scFv (scFv, V domains shown, human) VH: QVQLVQSGGGVVQPGRSLRLSCAASGFTFSSYGMHWVRQAPGKGLEWVAAISYDGSNKYYADSVKGRFTISRDNSKNTLYLQMNSLRAEDTAVYYCAKGEHFVVVTAFATWGQGTLVTVSS VL: DIVMTQSPSFLSASIGDRVTITCRASQSISNWLAWYQQKPGKAPKVLVYKASSLENGVPSRFSGSGSGTDFTLTITSLQPDDFATYYCQQYNAYPLTFGGGTKVEIK	binds	no binding (tested: ~1 µM)
